Test [1] concerns the target T1, enriched paired helical filament tau protein (ePHF) (human, UniProt P10636 2-758).
T1 construct: Sarkosyl-insoluble filaments isolated from human frontal cortical tissue; aggregated, isoform mix and phosphorylated residues not specified; also called sarkosyl insoluble tau
The experiment in a line: direct ELISA, ePHF coated.
Description: (§1) These candidate antibodies were analyzed for binding to ePHF and specificity for ePHF over wild type tau by direct ELISA.
(§2) For direct ePHF and wildtype tau ELISA, plates were first coated with ePHF or wild type tau. Antigen solutions were prepared in PBS and 50 µL were pipetted into each well. Plates were covered and incubated for one hour at 37° C. or overnight at 4° C. Plates were then washed and blocked by addition of 150 µl of blocking buffer to each well and incubated one hour at room temperature. Plates were then washed before addition of serially diluted candidate antibody samples prepared in blocking buffer. Detection of candidate antibody binding was carried out by washing plates and adding a solution of enzyme-labeled secondary antibody in blocking buffer to each well. Secondary antibody binding was detected by addition of substrate and spectrophotometric analysis of resulting reaction product.

The target of the next test is wild type tau (UniProt P10636-8 1-441, limits assumed). The experiment in a line: direct ELISA, wild type tau coated. Background: ELISA stands for enzyme-linked immunosorbent assay.
The target in test [2] is T1, enriched paired helical filament tau …. Put plainly: cell-based or functional assay.
Test [3] has the same target. The experiment in a line: follow up analysis, method not stated.
Another test concerns the target iPHF (UniProt P10636-8 1-441). Put plainly: Octet, epitope binning of Example 4. (In BLI a coated tip is dipped into the sample, and binding shifts an interference pattern.)

The EC50 is the concentration that produces a half-maximal response.

T1 sequence (P10636 other isoform, or with tags, fused parts or gaps limits assumed): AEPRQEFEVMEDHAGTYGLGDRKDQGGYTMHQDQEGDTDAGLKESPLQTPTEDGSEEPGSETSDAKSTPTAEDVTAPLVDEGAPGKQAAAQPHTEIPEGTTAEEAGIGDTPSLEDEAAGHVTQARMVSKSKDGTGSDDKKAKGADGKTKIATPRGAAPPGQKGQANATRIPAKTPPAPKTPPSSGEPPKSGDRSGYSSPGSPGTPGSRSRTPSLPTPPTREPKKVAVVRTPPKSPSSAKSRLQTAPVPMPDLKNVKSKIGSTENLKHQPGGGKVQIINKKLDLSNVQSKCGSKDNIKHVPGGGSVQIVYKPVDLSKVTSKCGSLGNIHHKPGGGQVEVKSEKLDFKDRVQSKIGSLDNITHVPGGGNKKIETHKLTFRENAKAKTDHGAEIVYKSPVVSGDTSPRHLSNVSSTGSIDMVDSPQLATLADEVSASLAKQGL
Sequence of wild type tau (P10636 other isoform, or with tags, fused parts or gaps limits assumed): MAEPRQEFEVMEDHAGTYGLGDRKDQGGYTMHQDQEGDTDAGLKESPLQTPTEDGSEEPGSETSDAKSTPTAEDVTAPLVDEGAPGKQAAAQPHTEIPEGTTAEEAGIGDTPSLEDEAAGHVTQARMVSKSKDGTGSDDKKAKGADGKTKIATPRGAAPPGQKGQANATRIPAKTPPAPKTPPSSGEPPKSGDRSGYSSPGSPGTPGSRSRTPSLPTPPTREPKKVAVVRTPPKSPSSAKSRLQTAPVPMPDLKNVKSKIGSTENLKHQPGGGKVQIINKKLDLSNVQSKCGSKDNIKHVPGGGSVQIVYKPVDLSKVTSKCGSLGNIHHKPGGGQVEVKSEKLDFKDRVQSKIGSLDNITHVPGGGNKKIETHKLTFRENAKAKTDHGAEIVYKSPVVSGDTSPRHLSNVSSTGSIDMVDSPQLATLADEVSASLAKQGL
Description for iPHF: Variable domain nucleic acid sequences from antibodies obtained from immunizations described above were used to prepare recombinant mouse IgG antibodies for iPHF affinity measurement and epitope binding competition analysis. Studies were carried out by Octet (ForteBio, Menlo Park, CA) analysis.
For epitope binding competition analysis, a process also referred to as “epitope binning,” candidate antibodies were analyzed using a sandwich assay format, wherein a first “capture” antibody is attached to the Octet biosensor before antigen and a second antibody are sequentially introduced and biosensor readings are used to determine whether one or both antibodies bind to each antigen. […] PT3, IPN002, or C10.2 antibodies were used as capture antibodies and immobilized on AMC biosensor tips as described above. Biosensor tips were then washed and blocked in 10 µg/ml MOPC. After a further wash, biosensor capture antibodies were associated with iPHF. Candidate antibodies were then analyzed for binding to iPHF. MOPC (non antigen-specific control) and PT3, IPN002, or C10.2 antibodies (in each case matching the biosensor antibody) were used as directly competing controls.
Description for wild type tau: as §1, §2

B1: V0035 (antibody, mouse IgG1, V domains shown)
VH: EAQLQQSGAELVRPGSSVKMSCKTSGYTFTSYGINWVKQRPGQGLEWIGYIYIRNGNTAYNEKFKGKATVTSDTSSSTVYMQLSSLTSEDSAIYFCAGTGTSFTYWGQGTLVTVSA
VL: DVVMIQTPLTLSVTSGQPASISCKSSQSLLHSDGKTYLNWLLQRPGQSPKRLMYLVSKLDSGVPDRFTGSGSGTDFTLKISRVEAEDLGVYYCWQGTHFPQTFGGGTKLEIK
Turning to B1, in test [1], the response was half-maximal at 0.315 nM (EC50).

B2: V0034 (antibody, mouse IgG1, V domains shown)
VH: EVQLQQSGAELVRPGSSVKMSCKTSGYTFTSYGINWVKQRPGQGLEWVGYIYIRDGNTAYNEKFKGKATVTSDTSSSTVYMQLSSLTSEDSAIYFCAGTGTSFAYWGQGTLVTVSA
VL: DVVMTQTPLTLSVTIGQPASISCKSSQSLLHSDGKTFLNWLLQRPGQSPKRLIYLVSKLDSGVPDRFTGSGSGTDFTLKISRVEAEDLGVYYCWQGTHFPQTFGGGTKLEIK
In test [1], B2 gave an EC50 of 0.351 nM.

B3: V2004 (antibody, mouse IgG1, V domains shown)
VH: QVQLQQSGAELARPGASVKLSCKSSGYIFSSYWMQWVKQRPGQGLEWIGAIYPGDGDTRYTPKFKGKATLTADKSSSTAYMQLTSLASEDSAVYYCAKGYSQSFDYWGQGTTLTVSS
VL: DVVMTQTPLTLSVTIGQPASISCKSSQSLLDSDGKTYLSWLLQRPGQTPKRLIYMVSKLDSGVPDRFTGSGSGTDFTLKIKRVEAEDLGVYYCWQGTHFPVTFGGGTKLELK
As for B3, the binding result with wild type tau is recorded as “no binding”.

B4: V00018 (antibody, mouse IgG1, V domains shown)
VH: QVQLQQPGADLVRPGSSVKLSCKASGYTFTRSWMHWVKQRPIEGLEWIGNIDPSDSEAHYNQKFKDKATLTVDKFSNTAYMQLSSLTSEDSAVYYCARWDDFYVAYWGQGTLVTVSA
VL: DIVLTQSPASLAVSLGQRATISCRASKSVSTSGYSYIHWYQQKPGQPPKLLIYLASNLESGVPARFSGSGSGTDFTLNIHPVEEEDAATYYCQHSRELPWTFGGGTKLEIK
As for B4, the EC50 in test [1] worked out at 0.718 nM.

B5: V0023 (antibody, mouse IgG1, V domains shown)
VH: QVQLQQPGTELVKPGASVKLSCKASGYTFTIFWMHWVKQRPGHGLEWIGKINPNNGGGDYNEKFKSKATLTVDKSSTTAYLQLSSLTSEDSAVYYCARGTGTGAMDYWGQGTSVTVSS
VL: DVVMTQTPLSLPVSLGDHASISCRSSQSLVHSNGITHLYWYLQRPGQTPKLLIYRVSNRFSGVPDRFSGSGSGTDFTLKISSVEAEDLGVYFCFQGTHVPRTFGGGTKLEIE
As for B5, the “Average IC50 (nM), tau aggregation inhibition, immunodepletion assay with tau RD Biosensor cells” value in test [2] came to 16.5 nM. The “selectivity for ePHF over wild type tau” value in test [3] was greater than 100 fold. The EC50 in test [1] was 0.11 nM.

B6: V0024 (antibody, mouse IgG1, V domains shown)
VH: QVQLQQPGTELVKPGASVKLSCKASGYTFTRFWMHWVKQRPGQGLEWIGNINPNNGGTDNNERFKSKATLTVDRSSSTAYMQLSSLTSEDSAVYYCARGTGTGAMDYWGQGTSVTVSS
VL: DVVMTQTPLSLPVSLGDQASISCRSSQSLVHSNGNTHLYWYLQKPGQSPKLLIYRVSSRFSGVPDRFSGSGSGTDFTLKISRVEAEDLGVYFCFQGTHVPRTFGGGTKLEIK
Consider B6, for which the “Average IC50 (nM), tau aggregation inhibition, immunodepletion assay with tau RD Biosensor cells” value in test [2] was found to be 18.6 nM.

B7: V0025 (antibody, mouse IgG1, V domains shown)
VH: QVQLQQPGTELVKPGASVKLSCKASGFTFTRFWMHWVKQRPGQGLEWIGNINPNNGETNYNEKFKIKAALTVDKSSTTAYMQLSSLTSEDSAVYSCARGTGTGAMDYWGQGTSVTVSS
VL: DVVMTQTPLSLPVSLGDQASISCRSSQSLVHSTGNTYLYWYLQKPGQSPKLLIYRVSTRFSGVPDRFSGSGSGTDFTLKINRVEAEDLGVYFCFQGTHVPRTFGGGTKLEIK
In test [1], B7 registered an EC50 of 0.098 nM.

B8: V0022 (antibody, mouse IgG1, V domains shown)
VH: QVQLQQPGTELVKPGSSVNLSCKASGFTFTRYWMHWVKERPGHGLEWIGNINPNNGGTDFNEKFKNKATLTVHKSSTTVFIQLSSLTSEDSAVYYCARGTGTGAMDYWGQGTSVTVSS
VL: DVVMTQTPLSLPVSLGDQASISCRSSQSLVHNNGITYLYWYLQKPGQSPKLLIYRVSNRFSGVPDRFGGSGSGTDFTLKISRVEAEDLGVYFCFQGTHVPRTFGGGTKLEIK
As for B8, the “Average IC50 (nM), tau aggregation inhibition, immunodepletion assay with tau RD Biosensor cells” value in test [2] amounted to 18.2 nM. Further, the “selectivity for ePHF over wild type tau” value in test [3] is greater than 100 fold. The response in test [1] was half-maximal at 0.07 nM (EC50).

B9: V00014 (antibody, mouse IgG1, V domains shown)
VH: QAYLQQSGAELVRPGASVKMSCKASGYTFTSYNMHWVKQTPRQGLEWIGAIYPGNGDTSYNQKFKGKATLTVDKSSSTAYMQLSSLTSEDSAVYFCARGGMDYWGQGTSVTVSS
VL: DVVMTQTPLSLPVSLGDQASISCRSSQSLVHSNGNTYLHWYLQKPGQSPKLLIYKVSNRFSGVPDRFSGSGSGTDFTLKISRVEAEDLGVYFCSQSTHVPYTFGGGTKLEIK
Turning to B9, the binding result in the test with iPHF and in the test with wild type tau was “no binding” throughout.

The record behind these values is patent US20230192830A1 (VOYAGER THERAPEUTICS, published 2023).
